These results are taken from the supplement of paper PMC5998384.

In series [1] the test system is HeLa Kyoto. Kind of series: solubility in G1/S (NP-40 vs SDS abundance) (log2 ratio); higher = more soluble. Particulars: cell cycle stage: G1/S.
Series [2] concerns HeLa Kyoto. Kind of series: melting temperature (median over replicates), in situ; higher = more thermally stable.
The subject of series [3] is HeLa Kyoto. Description: solubility change mitosis vs G1/S (difference of NP-40 vs SDS log2 ratios) (log2 ratio difference); higher = more soluble in mitosis.
Series [4] relates to HeLa Kyoto. Kind of series: thermal stability score vs G1/S (z-score of summed log2 fold changes over temperatures); higher = more thermally stable than in G1/S.
Setting [5] is: cell cycle stage: early G1 (4.5 h after nocodazole release).
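For melting temperature (median over replicates), in situ in this document: HeLa Kyoto cells synchronized by double thymidine or nocodazole block, proteins quantified by TMT10plex mass spectrometry, three independent biological replicates.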
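For solubility change mitosis vs G1/S (difference of NP-40 vs SDS log2 ratios) in this document: synchronized HeLa Kyoto cells (double thymidine block for G1/S, nocodazole release for mitosis), protein amounts in NP-40 versus SDS lysates quantified by mass spectrometry, three biological replicates.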
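For solubility in G1/S (NP-40 vs SDS abundance) in this document: HeLa Kyoto cells arrested at G1/S by double thymidine block, proteins quantified by TMT10plex mass spectrometry in mild NP-40 versus SDS extracts, three biological replicates.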
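For thermal stability score vs G1/S (z-score of summed log2 fold changes over temperatures) in this document: synchronized HeLa Kyoto cells, proteins quantified by TMT10plex mass spectrometry, three biological replicates, mitosis taken 0.5 h after nocodazole release, G1/S directly after double thymidine block.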

Turning to “MEGLTLSDAEQKYYSDLFSYCDIESTKKVVVNGRVLELFRAAQLPNDVVLQIMELCGATRLGYFGRSQFYIALKLVAVAQSGFPLRVESINTVKDLPLPRFVASKNEQESRHAASYSSDSENQGSYSGVIPPPPGRGQVKKGSVSHDTVQPRTSADAQEPASPVVSPQQSPPTSPHTWRKHSRHPSGGNSERPLAGPGPFWSPFGEAQSGSSAGDAVWSGHSPPPPQENWVSFADTPPTSTLLTMHPASVQDQTTVRTVASATTAIEIRRQSSSYDDPWKITDEQRQYYVNQFKTIQPDLNGFIPGSAAKEFFTKSKLPILELSHIWELSDFDKDGALTLDEFCAAFHLVVARKNGYDLPEKLPESLMPKLIDLEDSADVGDQPGEVGYSGSPAEAPPSKSPSMPSLNQTWPELNQSSEQWETFSERSSSSQTLTQFDSNIAPADPDTAIVHPVPIRMTPSKIHMQEMELKRTGSDHTNPTSPLLVKPSDLLEENKINSSVKFASGNTVADGYSSSDSFTSDPEQIGSNVTRQRSHSGTSPDNTAPPPPPPRPQPSHSRSSSLDMNRTFTVTTGQQQAGVVAHPPAVPPRPQPSQAPGPAVHRPVDADGLITHTSTSPQQIPEQPNFADFSQFEVFAASNVNDEQDDEAEKHPEVLPAEKASDPASSLRVAKTDSKTEEKTAASAPANVSKGTTPLAPPPKPVRRRLKSEDELRPEVDEHTQKTGVLAAVLASQPSIPRSVGKDKKAIQASIRRNKETNTVLARLNSELQQQLKDVLEERISLEVQLEQLRPFSHL [REPS1]”, the “solubility in G1/S (log2)” value in the series with HeLa Kyoto [1] was found to be 0.0849. The results for the melting temperature in the series on HeLa Kyoto [2] (cell cycle stage: G1/S) and with HeLa Kyoto [2] (cell cycle stage: mitosis) were 48.8 °C and 49.8 °C, respectively. Moreover, the “solubility change mitosis (log2)” value in the series on HeLa Kyoto [3] was -0.0971. In addition, the figures for the thermal stability score in the series with HeLa Kyoto [4] (setting [5]) and with HeLa Kyoto [4] (cell cycle stage: mitosis) were 0.407 and 0.261, respectively.
For the sequence “MEGLVVAAGGDVSLHNFSARLWEQLVHFHVMRLTDSLFLWVGATPHLRNLAVAMCSRYDSIPVSTSLLGDTSDTTSTGLAQRLARKTNKQVFVSYNLQNTDSNFALLVENRIKEEMEAFPEKF [PSMG4]”, the “solubility in G1/S (log2)” value in the series with HeLa Kyoto [1] stood at 0.14. Besides, the melting temperature in the series on HeLa Kyoto [2] (cell cycle stage: G1/S) was 57.5 °C; with HeLa Kyoto [2] (cell cycle stage: mitosis) it was 54.1 °C. Besides, in the series on HeLa Kyoto [3], the “solubility change mitosis (log2)” value was -0.0112. Moreover, the thermal stability score with HeLa Kyoto [4] (setting [5]) was -0.165; with HeLa Kyoto [4] (cell cycle stage: mitosis), -2.02.
Consider “MEGNRDEAEKCVEIAREALNAGNREKAQRFLQKAEKLYPLPSARALLEIIMKNGSTAGNSPHCRKPSGSGDQSKPNCTKDSTSGSGEGGKGYTKDQVDGVLSINKCKNYYEVLGVTKDAGDEDLKKAYRKLALKFHPDKNHAPGATDAFKKIGNAYAVLSNPEKRKQYDLTGNEEQACNHQNNGRFNFHRGCEADITPEDLFNIFFGGGFPSGSVHSFSNGRAGYSQQHQHRHSGHEREEERGDGGFSVFIQLMPIIVLILVSLLSQLMVSNPPYSLYPRSGTGQTIKMQTENLGVVYYVNKDFKNEYKGMLLQKVEKSVEEDYVTNIRNNCWKERQQKTDMQYAAKVYRDDRLRRKADALSMDNCKELERLTSLYKGG [DNAJB14]”, for which the “solubility in G1/S (log2)” value in the series on HeLa Kyoto [1] came to 0.511. Also, the figures for the melting temperature with HeLa Kyoto [2] (cell cycle stage: G1/S) and in the series with HeLa Kyoto [2] (cell cycle stage: mitosis) were 51.3 °C and 51.9 °C, respectively. In the series on HeLa Kyoto [3], the “solubility change mitosis (log2)” value was -0.15. Further, the thermal stability score in the series with HeLa Kyoto [4] (setting [5]) is -1.51; in the series with HeLa Kyoto [4] (cell cycle stage: mitosis), 0.131.
As for “MEGSGEQPGPQPQHPGDHRIRDGDFVVLKREDVFKAVQVQRRKKVTFEKQWFYLDNVIGHSYGTAFEVTSGGSLQPKKKREEPTAETKEAGTDNRNIVDDGKSQKLTQDDIKALKDKGIKGEEIVQQLIENSTTFRDKTEFAQDKYIKKKKKKYEAIITVVKPSTRILSIMYYAREPGKINHMRYDTLAQMLTLGNIRAGNKMIVMETCAGLVLGAMMERMGGFGSIIQLYPGGGPVRAATACFGFPKSFLSGLYEFPLNKVDSLLHGTFSAKMLSSEPKDSALVEESNGTLEEKQASEQENEDSMAEAPESNHPEDQETMETISQDPEHKGPKERGSKKDYIQEKQRRQEEQRKRHLEAAALLSERNADGLIVASRFHPTPLLLSLLDFVAPSRPFVVYCQYKEPLLECYTKLRERGGVINLRLSETWLRNYQVLPDRSHPKLLMSGGGGYLLSGFTVAMDNLKADTSLKSNASTLESHETEEPAAKKRKCPESDS [TRMT6]”, the “solubility in G1/S (log2)” value with HeLa Kyoto [1] was found to be 0.0845. In addition, the melting temperature amounted to 54.9 °C in the series on HeLa Kyoto [2] (cell cycle stage: G1/S) and 56.2 °C in the series with HeLa Kyoto [2] (cell cycle stage: mitosis). Further, the “solubility change mitosis (log2)” value with HeLa Kyoto [3] was 0.019. The thermal stability score with HeLa Kyoto [4] (setting [5]) was determined as 2.23; in the series on HeLa Kyoto [4] (cell cycle stage: mitosis), 0.0663.
With “MEIIRSNFKSNLHKVYQAIEEADFFAIDGEFSGISDGPSVSALTNGFDTPEERYQKLKKHSMDFLLFQFGLCTFKYDYTDSKYITKSFNFYVFPKPFNRSSPDVKFVCQSSSIDFLASQGFDFNKVFRNGIPYLNQEEERQLREQYDEKRSQANGAGALSYVSPNTSKCPVTIPEDQKKFIDQVVEKIEDLLQSEENKNLDLEPCTGFQRKLIYQTLSWKYPKGIHVETLETEKKERYIVISKVDEEERKRREQQKHAKEQEELNDAVGFSRVIHAIANSGKLVIGHNMLLDVMHTVHQFYCPLPADLSEFKEMTTCVFPRLLDTKLMASTQPFKDIINNTSLAELEKRLKETPFNPPKVESAEGFPSYDTASEQLHEAGYDAYITGLCFISMANYLGSFLSPPKIHVSARSKLIEPFFNKLFLMRVMDIPYLNLEGPDLQPKRDHVLHVTFPKEWKTSDLYQLFSAFGNIQISWIDDTSAFVSLSQPEQVKIAVNTSKYAESYRIQTYAEYMGRKQEEKQIKRKWTEDSWKEADSKRLNPQCIPYTLQNHYYRNNSFTAPSTVGKRNLSPSQEEAGLEDGVSGEISDTELEQTDSCAEPLSEGRKKAKKLKRMKKELSPAGSISKNSPATLFEVPDTW [PARN]”, the “solubility in G1/S (log2)” value in the series on HeLa Kyoto [1] is -0.144. For the same sequence, the melting temperature in the series on HeLa Kyoto [2] (cell cycle stage: G1/S) was 48.7 °C; with HeLa Kyoto [2] (cell cycle stage: mitosis), 50.7 °C. In addition, the “solubility change mitosis (log2)” value in the series on HeLa Kyoto [3] is -0.0471. For the same sequence, the thermal stability score with HeLa Kyoto [4] (setting [5]) was found to be 1.32; with HeLa Kyoto [4] (cell cycle stage: mitosis), 2.89.
